According to patent publication US20120316071A1 (published 2012):

T1: rHuman Erythropoietin R/Fc Chimera, CF (R&D Systems Cat#963-ER) (human, UniProt P19235 25-250)
T1 construct: Bought recombinant Fc chimera; also called EPO R; EPO R/Fc; Fc part of the bought chimera not given
T1 sequence (looked up): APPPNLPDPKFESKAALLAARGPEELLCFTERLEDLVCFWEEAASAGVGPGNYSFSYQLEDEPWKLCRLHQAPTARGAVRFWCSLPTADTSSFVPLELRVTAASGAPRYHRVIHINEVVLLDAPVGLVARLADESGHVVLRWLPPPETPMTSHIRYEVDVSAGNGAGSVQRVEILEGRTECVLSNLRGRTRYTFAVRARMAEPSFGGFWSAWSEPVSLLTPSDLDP


Key:
Test in all cases: ECL multispot (MSD), antigen spotted, Fab in solution;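 further: purified Fab incubated 1 h at 20 °C on antigen-spotted wells, bound Fab detected via TAG detection antibody, ECL compared with each well's blank, ratio of 4 or above scored as hit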
[1] = target: T2, rHuman ErbB2/Fc Chimera, CF (R&D Systems Cat#1129-ER) (human, UniProt P04626 23-652)
T2 construct: Bought recombinant Fc chimera; also called human epidermal growth factor 2 receptor; Fc part of the bought chimera not given

[2] = target: T3, rHuman EGF R/Fc Chimera, CF (R&D Systems Cat#344-ER) (human, UniProt P00533 25-645)
T3 construct: Bought recombinant Fc chimera; also called epidermal growth factor receptor; Fc part of the bought chimera not given

[3] = target: T4, rHuman HGF R/c-MET/Fc Chimera, CF (R&D Systems Cat#358-MT/CF) (human, UniProt P08581 25-932)
T4 construct: Bought recombinant Fc chimera; also called HGF R/Fc; hepatocyte growth factor receptor; Fc part of the bought chimera not given

[4] = target: T5, rHuman Notch-1/Fc Chimera, CF (R&D Systems Cat#3647-TK) (human, UniProt P46531 19-526)
T5 construct: Bought recombinant Fc chimera; Fc part of the bought chimera not given

[5] = target: T6, rHuman CD44/Fc Chimera, CF (R&D Systems Cat#3660-CD) (human, UniProt P16070 21-220)
T6 construct: Bought recombinant Fc chimera; Fc part of the bought chimera not given

[6] = target: T7, rHuman IGF-1 sR, (IGF-1 sR), CF (R&D Systems Cat#391-GR) (human, UniProt P08069 31-932)
T7 construct: Bought recombinant soluble receptor; The column head prints only 'IGF-1'; also called insulin-like growth factor-1 soluble receptor

[7] = target: T8, rHuman P-Cadherin/Fc Chimera, CF (R&D Systems Cat#861-PC) (human, UniProt P22223 108-654)
T8 construct: Bought recombinant Fc chimera; Fc part of the bought chimera not given

[8] = target: T1, rHuman Erythropoietin R/Fc Chimera, CF …

T4 sequence (P08581 25-932, change not shown): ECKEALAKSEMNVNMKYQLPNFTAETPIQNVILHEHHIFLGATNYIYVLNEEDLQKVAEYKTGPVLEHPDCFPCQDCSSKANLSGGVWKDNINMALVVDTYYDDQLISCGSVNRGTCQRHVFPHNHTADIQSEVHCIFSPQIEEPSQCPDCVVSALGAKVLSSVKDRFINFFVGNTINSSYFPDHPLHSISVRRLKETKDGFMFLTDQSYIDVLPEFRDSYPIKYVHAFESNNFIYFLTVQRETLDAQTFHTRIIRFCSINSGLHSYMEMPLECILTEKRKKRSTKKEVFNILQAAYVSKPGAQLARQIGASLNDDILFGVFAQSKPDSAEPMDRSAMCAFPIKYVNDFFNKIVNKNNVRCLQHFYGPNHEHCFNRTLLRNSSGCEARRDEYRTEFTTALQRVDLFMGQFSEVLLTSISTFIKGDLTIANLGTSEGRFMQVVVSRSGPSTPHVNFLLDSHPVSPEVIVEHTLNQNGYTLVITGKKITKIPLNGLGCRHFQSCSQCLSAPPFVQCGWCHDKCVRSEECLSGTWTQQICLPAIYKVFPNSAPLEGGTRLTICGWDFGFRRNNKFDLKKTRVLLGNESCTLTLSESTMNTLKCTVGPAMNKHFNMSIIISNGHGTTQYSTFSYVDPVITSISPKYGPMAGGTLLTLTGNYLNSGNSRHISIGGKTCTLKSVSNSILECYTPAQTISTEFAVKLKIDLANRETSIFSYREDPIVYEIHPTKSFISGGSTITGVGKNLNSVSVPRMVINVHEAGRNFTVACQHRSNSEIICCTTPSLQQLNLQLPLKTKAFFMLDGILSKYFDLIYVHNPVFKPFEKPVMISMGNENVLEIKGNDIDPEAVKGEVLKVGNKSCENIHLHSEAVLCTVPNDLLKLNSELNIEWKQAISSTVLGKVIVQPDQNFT

Row | Binder | ECL signal [1] | ECL signal [2] | ECL signal [3] | ECL signal [4] | ECL signal [5] | ECL signal [6] | ECL signal [7] | ECL signal [8]
1 | Fab VH1-46_IGHD6-6*01_IGHJ1*01 S102A/S103P/S104F/H111F (APFF) & L6_IGKJ1*01 S28R (Fab, V domains shown, Fab; VH cloned into Plasmid A (CH1, His6 and Flag tags) and VL into Plasmid C (kappa CL); also called APFF / S28R) VH: QVQLVQSGAEVKKPGASVKVSCKASGYTFTSYYMHWVRQAPGQGLEWMGIINPSGGSTSYAQKFQGRVTMTRDTSTSTVYMELSSLRSEDTAVYYCAREEYAPFSAEYFQFWGQGTLVTVSS VL: EIVLTQSPATLSLSPGERATLSCRASQRVSSYLAWYQQKPGQAPRLLIYDASNRATGIPARFSGSGSGTDFTLTISSLEPEDFAVYYCQQRSNWPPWTFGQGTKVEIKR | 318 | 403 | 378 | 425 | 378 | 437 | 395 | 542
2 | Fab VH1-46_IGHD6-6*01_IGHJ1*01 S102A/S103P/S104F/H111F (APFF) & L6_IGKJ1*01 S28E (Fab, V domains shown, Fab; VH cloned into Plasmid A (CH1, His6 and Flag tags) and VL into Plasmid C (kappa CL); also called APFF / S28E) VH: QVQLVQSGAEVKKPGASVKVSCKASGYTFTSYYMHWVRQAPGQGLEWMGIINPSGGSTSYAQKFQGRVTMTRDTSTSTVYMELSSLRSEDTAVYYCAREEYAPFSAEYFQFWGQGTLVTVSS VL: EIVLTQSPATLSLSPGERATLSCRASQEVSSYLAWYQQKPGQAPRLLIYDASNRATGIPARFSGSGSGTDFTLTISSLEPEDFAVYYCQQRSNWPPWTFGQGTKVEIKR | 389 | 396 | 401 | 433 | 461 | 361 | 393 | 513
3 | Fab VH1-46_IGHD6-6*01_IGHJ1*01 S102A/S103P/S104F/H111F (APFF) & L6_IGKJ1*01 S28I (Fab, V domains shown, Fab; VH cloned into Plasmid A (CH1, His6 and Flag tags) and VL into Plasmid C (kappa CL); also called APFF / S28I) VH: QVQLVQSGAEVKKPGASVKVSCKASGYTFTSYYMHWVRQAPGQGLEWMGIINPSGGSTSYAQKFQGRVTMTRDTSTSTVYMELSSLRSEDTAVYYCAREEYAPFSAEYFQFWGQGTLVTVSS VL: EIVLTQSPATLSLSPGERATLSCRASQIVSSYLAWYQQKPGQAPRLLIYDASNRATGIPARFSGSGSGTDFTLTISSLEPEDFAVYYCQQRSNWPPWTFGQGTKVEIKR | 265 | 386 | 369 | 442 | 412 | 353 | 416 | 450

Other lines, results leading:

Row | ECL signal [1] | ECL signal [2] | ECL signal [3] | ECL signal [4] | ECL signal [5] | ECL signal [6] | ECL signal [7] | ECL signal [8] | Binder
4 | 284 | 325 | 312 | 415 | 434 | 357 | 543 | 496 | Fab VH1-46_IGHD6-6*01_IGHJ1*01 S102A/S103P/S104F/H111F (APFF) & L6_IGKJ1*01 S30D (Fab, V domains shown, Fab; VH cloned into Plasmid A (CH1, His6 and Flag tags) and VL into Plasmid C (kappa CL); also called APFF / S30D) VH: QVQLVQSGAEVKKPGASVKVSCKASGYTFTSYYMHWVRQAPGQGLEWMGIINPSGGSTSYAQKFQGRVTMTRDTSTSTVYMELSSLRSEDTAVYYCAREEYAPFSAEYFQFWGQGTLVTVSS VL: EIVLTQSPATLSLSPGERATLSCRASQSVDSYLAWYQQKPGQAPRLLIYDASNRATGIPARFSGSGSGTDFTLTISSLEPEDFAVYYCQQRSNWPPWTFGQGTKVEIKR
5 | 270 | 406 | 315 | 389 | 295 | 332 | 351 | 540 | Fab VH1-46_IGHD6-6*01_IGHJ1*01 S102A/S103P/S104F/H111F (APFF) & L6_IGKJ1*01 S30L (Fab, V domains shown, Fab; VH cloned into Plasmid A (CH1, His6 and Flag tags) and VL into Plasmid C (kappa CL); also called APFF / S30L) VH: QVQLVQSGAEVKKPGASVKVSCKASGYTFTSYYMHWVRQAPGQGLEWMGIINPSGGSTSYAQKFQGRVTMTRDTSTSTVYMELSSLRSEDTAVYYCAREEYAPFSAEYFQFWGQGTLVTVSS VL: EIVLTQSPATLSLSPGERATLSCRASQSVLSYLAWYQQKPGQAPRLLIYDASNRATGIPARFSGSGSGTDFTLTISSLEPEDFAVYYCQQRSNWPPWTFGQGTKVEIKR
6 | 1010 | 1190 | 1230 | 1470 | 1080 | 1030 | 1690 | 1790 | Fab VH1-46_IGHD6-6*01_IGHJ1*01 S102A/S103P/S104F/H111F (APFF) & L6_IGKJ1*01 S30C (Fab, V domains shown, Fab; VH cloned into Plasmid A (CH1, His6 and Flag tags) and VL into Plasmid C (kappa CL); also called APFF / S30C) VH: QVQLVQSGAEVKKPGASVKVSCKASGYTFTSYYMHWVRQAPGQGLEWMGIINPSGGSTSYAQKFQGRVTMTRDTSTSTVYMELSSLRSEDTAVYYCAREEYAPFSAEYFQFWGQGTLVTVSS VL: EIVLTQSPATLSLSPGERATLSCRASQSVCSYLAWYQQKPGQAPRLLIYDASNRATGIPARFSGSGSGTDFTLTISSLEPEDFAVYYCQQRSNWPPWTFGQGTKVEIKR
